Where a chain is given by its changes, count along the chain named.
B1: DVD2688 (bispecific antibody, IgG1)
VH: EVTLRESGPGLVKPTQTLTLTCTLYGFSLSTSDMGVDWIRQPPGKGLEWLAHIWWDDVKRYNPALKSRLTISKDTSKNQVVLKLTSVDPVDTATYYCARTVSSGYIYYAMDYWGQGTLVTVSSGGGGSGGGGSEVQLVESGGGLVQPGGSLRLSCAASGFTFSNYGVTWVRQAPGKGLEWVSMIWADGSTHYASSVKGRFTISRDNSKNTLYLQMNSLRAEDTAVYYCAREWQHGPVAYWGQGTLVTVSS
VL: DIQMTQSPSSLSASVGDRVTISCRASQDIRNYLNWYQQKPGKAPKLLIFYTSKLHSGVPSRFSGSGSGTDYTLTISSLQPEDIATYYCQQGLTPPLTFGGGTKVEIKRGGSGGGGSGDIQMTQSPSSLSASVGDRVTITCRASQLVSSAVAWYQQKPGKAPKLLIYWASARHTGVPSRFSGSGSGTDFTLTISSLQPEDFATYYCQQHYKTPFTFGQGTKLEIKR
B2: DVD2738 (bispecific antibody, IgG1)
VH: B1 VH with T168E, M183G, S194D, S195T, G198S
VL: B1 VL with R141K, A170T, R171L, K210R
B3: DVD2689 (bispecific antibody, IgG1)
VH: EVTLRESGPGLVKPTQTLTLTCTLYGFSLSTSDMGVDWIRQPPGKGLEWLAHIWWDDVKRYNPALKSRLTISKDTSKNQVVLKLTSVDPVDTATYYCARTVSSGYIYYAMDYWGQGTLVTVSSASTKGPEVQLVESGGGLVQPGGSLRLSCAASGFTFSNYGVTWVRQAPGKGLEWVSMIWADGSTHYASSVKGRFTISRDNSKNTLYLQMNSLRAEDTAVYYCAREWQHGPVAYWGQGTLVTVSS
VL: DIQMTQSPSSLSASVGDRVTISCRASQDIRNYLNWYQQKPGKAPKLLIFYTSKLHSGVPSRFSGSGSGTDYTLTISSLQPEDIATYYCQQGLTPPLTFGGGTKVEIKRTVAAPDIQMTQSPSSLSASVGDRVTITCRASQLVSSAVAWYQQKPGKAPKLLIYWASARHTGVPSRFSGSGSGTDFTLTISSLQPEDFATYYCQQHYKTPFTFGQGTKLEIKR
B4: DVD2739 (bispecific antibody, IgG1)
VH: B3 VH with T164E, M179G, S190D, S191T, G194S
VL: B3 VL with R137K, A166T, R167L, K206R
B5: DVD2692 (bispecific antibody, IgG1)
VH: EVTLRESGPGLVKPTQTLTLTCTLYGFSLSTSDMGVDWIRQPPGKGLEWLAHIWWDDVKRYNPALKSRLTISKDTSKNQVVLKLTSVDPVDTATYYCARTVSSGYIYYAMDYWGQGTLVTVSSASTKGPSVFPLAPEVQLVESGGGLVQPGGSLRLSCAASGFTFSNYGVTWVRQAPGKGLEWVSMIWADGSTHYASSVKGRFTISRDNSKNTLYLQMNSLRAEDTAVYYCAREWQHGPVAYWGQGTLVTVSS
VL: B3 VL

target: Recombinant Human TNF-α/TNFSF1A (human, UniProt P01375 77-233); test: cell-based or functional assay
Sequence (P01375 77-233 limits assumed): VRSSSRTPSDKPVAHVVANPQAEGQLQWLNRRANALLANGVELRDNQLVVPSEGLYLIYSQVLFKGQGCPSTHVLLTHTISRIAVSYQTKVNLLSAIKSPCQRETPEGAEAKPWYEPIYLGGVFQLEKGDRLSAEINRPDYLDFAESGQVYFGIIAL

C-Terminal VD huTNFα Neutralization Assay IC50 [nM] | Binder
0.093 | B1
0.452 | B2
0.076 | B3
0.517 | B4
0.04 | B5

Reference: patent US20140271457A1 (AbbVie / Abbott, published 2014)
